The text below walks through data of patent publication US20140350225A1 (JINAN UNIVERSITY, published 2014).

This assay concerns the target T1, basic Fibroblast Growth Factor (bFGF) (human, UniProt P09038 143-288, limits assumed).
T1 construct: Bought recombinant protein; It was coated on ELISA plates; also called recombined humanized bFGF; antigen bFGF
The assay is described as follows: indirect ELISA: bFGF coated at 0.5 ug/ml, anti-His-tag detection, A450. The method, then: The recombined humanized bFGF (Sigma-Aldrich Co.) was diluted to 0.5 μg/ml with carbonate buffer solution (0.05 mol/L, pH9.6) to coat ELISA plates at an amount of 100 μL/well, and incubated at 37° C. for 3 h. After discarding the liquid in the well, the plates were washed with PBST (PBS, 0.015 mol/L, pH 7.4, comprising Tween 20 0.05% (v/v)) for three times, blocked with fat-free milk-PBST 5% (wt), added with the ds-Diabody and anti-bFGF ScFv prepared according to example 1 at a certain concentration to achieve an amount of 100 μL/well. Then the plates were incubated at 37° C. for 1 h, washed with PBST for three times, added with 100 μL/well diluted anti-His-tag mouse monoclonal antibody 1:2000 (v/v) (sigma-aldrich Co.), incubated at 37° C. for 1 h, washed with PBS-T for three times again, and then added with diluted HRP marked goat anti-mouse polyclonal antibody (1:8000 (v/v) (sigma-aldrich Co.), and incubated at 37° C. for 0.5 h. After that, the plates were washed with PBS-T for 5 times, stained by TMB and detected at A450. Meanwhile, PBS was used as a negative control.

T1 sequence (P09038 143-288 limits assumed): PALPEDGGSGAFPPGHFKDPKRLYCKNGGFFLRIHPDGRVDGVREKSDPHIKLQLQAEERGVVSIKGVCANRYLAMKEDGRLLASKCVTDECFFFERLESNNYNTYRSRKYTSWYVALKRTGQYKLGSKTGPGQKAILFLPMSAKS

B1: anti-bFGF humanized ds-Diabody (other)
chain: QSVLTQPASVSGSPGQSITISCTGTSSDVGGYNYVSWYQQHPGKAPKLMIYDVSNRPSGVSNRFSGSKSGNTASLTISGLQAEDEADYYCSSYTSSSTVVFGCGTKLTVLGGGGSQVQLQESGGGLVQPGGSLRLSCAASGFTFSSYEMNWVRQAPGKCLEWVSYISSSGSTIYYADSVKGRFTISRDNAKNSLYLQMNSLRAEDTAVYYCARELTGDWGAFDIWGQGTMVTVSSHHHHHH
notes: Dimer of two VL-GGGGS-VH chains joined covalently by disulfide bonds between Cys at VL 100 and Cys at VH 44; Bivalent; Expressed in HEK 293T cells and purified on a Ni column; also called disulfide bond stabilized-diabody; VL-GGGGS-VH; not shown: N-terminal residues from the vector p3XFLAG-Myc-CMV-25, if any stay on the secreted protein
In the case of B1, the binding result is on record as “binds”.
